Experimental findings from US20180201654A1 (UNIVERSITY OF SOUTHERN CALIFORNIA, published 2018) are described below.

Usually Kd stands for a measure of binding affinity in units of concentration. The low end stands for higher affinity, the high end for lower affinity.

In experiment [1] the target is T1, HAUSP (Herpes virus-associated ubiquitin-specific protease), full length (human, UniProt Q93009 1-1102).
T1 construct: also called USP7; Flag-HAUSP
Description: GST pulldown from transfected 293T cells, IB: Flag.

Experiment [2] concerns the target T1, HAUSP (Herpes virus-associated …). Description: GST pulldown from transfected cells, immunoblot with anti-HAUSP antibody. For orientation: Immunoblotting shows a protein as a band on a membrane.
For experiment [3] the target is unchanged. Description: co-immunoprecipitation from transfected 293T cells, IP: V5, IB: Flag.
The target is the same in experiment [4]. The experiment is described as above. The source holds these as a separate data set.
Experiment [5] has as its target T2, HAUSP TRAF domain (HAUSP^62-205) (human, UniProt Q93009 62-205).
T2 construct: also called TRAF-like domain of HAUSP
Description: ITC, titration against the HAUSP TRAF domain, 20 C. (In general: Isothermal titration calorimetry measures the heat released or taken up as one component is titrated into another.)

T2 sequence (Q93009 62-205): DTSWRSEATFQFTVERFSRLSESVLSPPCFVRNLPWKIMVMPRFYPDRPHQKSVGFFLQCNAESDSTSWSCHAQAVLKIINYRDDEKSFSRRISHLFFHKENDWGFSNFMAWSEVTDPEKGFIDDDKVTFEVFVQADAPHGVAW
T1 sequence (Q93009 whole entry): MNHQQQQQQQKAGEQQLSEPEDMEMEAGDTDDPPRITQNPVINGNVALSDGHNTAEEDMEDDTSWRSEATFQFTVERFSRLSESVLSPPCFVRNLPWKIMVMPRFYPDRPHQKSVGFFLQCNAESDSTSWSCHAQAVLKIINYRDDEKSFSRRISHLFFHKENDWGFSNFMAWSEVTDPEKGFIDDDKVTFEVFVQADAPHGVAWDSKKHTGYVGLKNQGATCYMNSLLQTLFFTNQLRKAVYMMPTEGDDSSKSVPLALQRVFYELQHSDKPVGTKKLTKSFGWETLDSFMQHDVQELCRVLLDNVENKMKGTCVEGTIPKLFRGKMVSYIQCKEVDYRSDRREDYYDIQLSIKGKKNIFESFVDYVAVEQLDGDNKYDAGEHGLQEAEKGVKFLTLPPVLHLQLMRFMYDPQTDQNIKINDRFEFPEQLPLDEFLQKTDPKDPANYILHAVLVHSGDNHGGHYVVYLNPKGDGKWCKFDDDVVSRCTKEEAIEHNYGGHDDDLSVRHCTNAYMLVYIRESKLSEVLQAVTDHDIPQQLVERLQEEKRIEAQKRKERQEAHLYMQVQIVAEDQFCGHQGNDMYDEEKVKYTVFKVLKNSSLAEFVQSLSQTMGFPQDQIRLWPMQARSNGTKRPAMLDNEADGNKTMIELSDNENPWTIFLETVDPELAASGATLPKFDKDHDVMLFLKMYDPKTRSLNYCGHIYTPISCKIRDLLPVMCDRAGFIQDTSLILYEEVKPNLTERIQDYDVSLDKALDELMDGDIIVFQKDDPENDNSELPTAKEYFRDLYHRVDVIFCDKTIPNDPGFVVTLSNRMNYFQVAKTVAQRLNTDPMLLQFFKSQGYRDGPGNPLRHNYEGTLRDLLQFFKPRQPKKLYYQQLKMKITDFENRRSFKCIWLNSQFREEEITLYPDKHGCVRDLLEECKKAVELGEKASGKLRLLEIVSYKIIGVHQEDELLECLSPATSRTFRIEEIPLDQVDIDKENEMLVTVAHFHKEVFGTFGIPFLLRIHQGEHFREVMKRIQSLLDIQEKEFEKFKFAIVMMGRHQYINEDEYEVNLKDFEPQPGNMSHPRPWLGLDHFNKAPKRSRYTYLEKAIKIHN

B1: GST-vIRF4 1-153 (other)
single chain: MPKAGGSEWATLWIIDALENNKFPYFSWFDRNNLLFAAPAPLPAGSDIPPGWYSVYHAFDEECDRVYGPSPVVGQTVYGRFGRLLRGTRRAVVRNDLRYSDTFGGSYVVWQLVRTPFKNCTYCYGAAYGPEKLQRFIQCLLSPPMQTTATRRS
Regarding B1, in experiment [1], the binding result is on record as “no binding”.

B2: GST-vIRF4^202-256 (other)
chain: SVWIPVNEGASTSGMGSSGTRQVTQASSFTWRVPGDPPAPSTLTGPSDPHSSGAG
notes: not shown: GST tag of the pEBG-GST vector
Turning to B2, in experiment [2], the binding result is “binds”.

B3: GST-vIRF4^220-236 (other)
chain: GTRQVTQASSFTWRVPG
notes: as for B2
As for B3, the binding result in experiment [2] is reported as “binds”.

B4: V5/vIRF4 1-454 (other)
single chain: MPKAGGSEWATLWIIDALENNKFPYFSWFDRNNLLFAAPAPLPAGSDIPPGWYSVYHAFDEECDRVYGPSPVVGQTVYGRFGRLLRGTRRAVVRNDLRYSDTFGGSYVVWQLVRTPFKNCTYCYGAAYGPEKLQRFIQCLLSPPMQTTATRRSDTREQSYEEAGAAAPAPPKAPSGLRGRPRKSNRYYNVGDITTEQKAACSVWIPVNEGASTSGMGSSGTRQVTQASSFTWRVPGDPPAPSTLTGPSDPHSSGAGLPGTAPPKPQHETRLAGTVSGVSGVAQTPGDTGQLAPPMRDGSRLPSTSPWIPACFPWGDLPVTGWWPQGASGLPEKVHPPTTGQFDPLSPRWTYTGIPSSQLNPAAPSWIPPHAQAGTFVGEFSQGAPLAPQGLLPQSGQCASAWLPRRETGAEGACGASTEGRAPQGAASERVYPFEPQPPSAPAPGYAKPSCYNW
On to B4, for which the binding result in experiment [3] was “binds”.

B5: V5/vIRF4 1-305 (other)
single chain: MPKAGGSEWATLWIIDALENNKFPYFSWFDRNNLLFAAPAPLPAGSDIPPGWYSVYHAFDEECDRVYGPSPVVGQTVYGRFGRLLRGTRRAVVRNDLRYSDTFGGSYVVWQLVRTPFKNCTYCYGAAYGPEKLQRFIQCLLSPPMQTTATRRSDTREQSYEEAGAAAPAPPKAPSGLRGRPRKSNRYYNVGDITTEQKAACSVWIPVNEGASTSGMGSSGTRQVTQASSFTWRVPGDPPAPSTLTGPSDPHSSGAGLPGTAPPKPQHETRLAGTVSGVSGVAQTPGDTGQLAPPMRDGSRLPSTS
For B5, the binding result in experiment [3] is on record as “binds”.

B6: V5/vIRF4 1-605 (other)
single chain: MPKAGGSEWATLWIIDALENNKFPYFSWFDRNNLLFAAPAPLPAGSDIPPGWYSVYHAFDEECDRVYGPSPVVGQTVYGRFGRLLRGTRRAVVRNDLRYSDTFGGSYVVWQLVRTPFKNCTYCYGAAYGPEKLQRFIQCLLSPPMQTTATRRSDTREQSYEEAGAAAPAPPKAPSGLRGRPRKSNRYYNVGDITTEQKAACSVWIPVNEGASTSGMGSSGTRQVTQASSFTWRVPGDPPAPSTLTGPSDPHSSGAGLPGTAPPKPQHETRLAGTVSGVSGVAQTPGDTGQLAPPMRDGSRLPSTSPWIPACFPWGDLPVTGWWPQGASGLPEKVHPPTTGQFDPLSPRWTYTGIPSSQLNPAAPSWIPPHAQAGTFVGEFSQGAPLAPQGLLPQSGQCASAWLPRRETGAEGACGASTEGRAPQGAASERVYPFEPQPPSAPAPGYAKPSCYNWSPLAEPPATRPIRAPVWHPPVGHAVVPEVRTPLWIPWSSGGAPNQGLSHTQGGASATPSAGAPPTPEVAERQEPSSSGIPYVCQGDNMATGYRRVTTSSGALEVEIIDLTGDSDTPSTTVASTPLPVSGPRVFQPTVLYSAPEPAVNPEVS
On to B6, for which, in experiment [3], the binding result is on record as “binds”.

B7: vIRF4 (Kaposi's-sarcoma-associated-herpesvirus vIRF4), full length wild type (other)
chain: MPKAGGSEWATLWIIDALENNKFPYFSWFDRNNLLFAAPAPLPAGSDIPPGWYSVYHAFDEECDRVYGPSPVVGQTVYGRFGRLLRGTRRAVVRNDLRYSDTFGGSYVVWQLVRTPFKNCTYCYGAAYGPEKLQRFIQCLLSPPMQTTATRRSDTREQSYEEAGAAAPAPPKAPSGLRGRPRKSNRYYNVGDITTEQKAACSVWIPVNEGASTSGMGSSGTRQVTQASSFTWRVPGDPPAPSTLTGPSDPHSSGAGLPGTAPPKPQHETRLAGTVSGVSGVAQTPGDTGQLAPPMRDGSRLPSTSPWIPACFPWGDLPVTGWWPQGASGLPEKVHPPTTGQFDPLSPRWTYTGIPSSQLNPAAPSWIPPHAQAGTFVGEFSQGAPLAPQGLLPQSGQCASAWLPRRETGAEGACGASTEGRAPQGAASERVYPFEPQPPSAPAPGYAKPSCYNWSPLAEPPATRPIRAPVWHPPVGHAVVPEVRTPLWIPWSSGGAPNQGLSHTQGGASATPSAGAPPTPEVAERQEPSSSGIPYVCQGDNMATGYRRVTTSSGALEVEIIDLTGDSDTPSTTVASTPLPVSGPRVFQPTVLYSAPEPAVNPEVSHLPTELERRECVCPGSGERPRVPLVSTYAGDRYAVGGYGPEQSLVPPPLGLPLTLSNLQGEDICTWEEGLGNILSELQEEPSSSTRQATDRRRPRSRSPHGRRTPVSHSGPEKPPSKMFFDPPDSQRVSFVVEIFVYGNLRGTLRREGDAGEAMLCSWPVGDTLGHLCQSFVPELLRIPRLTVPSPEQMEILNRVFEGLGHGFPIFCSMSGIYSRNATQVEGWWFGNPNSRYERILRSFSPRVPQQLFNTARYLATTAAIPQTPLSVNPVTCGTVFFGASPASTENFQNVPLTVKIFIGSIWDSLH
In the case of B7, the binding result in experiment [4] was “binds”.

B8: V5/vIRF4 1-758 (other)
single chain: MPKAGGSEWATLWIIDALENNKFPYFSWFDRNNLLFAAPAPLPAGSDIPPGWYSVYHAFDEECDRVYGPSPVVGQTVYGRFGRLLRGTRRAVVRNDLRYSDTFGGSYVVWQLVRTPFKNCTYCYGAAYGPEKLQRFIQCLLSPPMQTTATRRSDTREQSYEEAGAAAPAPPKAPSGLRGRPRKSNRYYNVGDITTEQKAACSVWIPVNEGASTSGMGSSGTRQVTQASSFTWRVPGDPPAPSTLTGPSDPHSSGAGLPGTAPPKPQHETRLAGTVSGVSGVAQTPGDTGQLAPPMRDGSRLPSTSPWIPACFPWGDLPVTGWWPQGASGLPEKVHPPTTGQFDPLSPRWTYTGIPSSQLNPAAPSWIPPHAQAGTFVGEFSQGAPLAPQGLLPQSGQCASAWLPRRETGAEGACGASTEGRAPQGAASERVYPFEPQPPSAPAPGYAKPSCYNWSPLAEPPATRPIRAPVWHPPVGHAVVPEVRTPLWIPWSSGGAPNQGLSHTQGGASATPSAGAPPTPEVAERQEPSSSGIPYVCQGDNMATGYRRVTTSSGALEVEIIDLTGDSDTPSTTVASTPLPVSGPRVFQPTVLYSAPEPAVNPEVSHLPTELERRECVCPGSGERPRVPLVSTYAGDRYAVGGYGPEQSLVPPPLGLPLTLSNLQGEDICTWEEGLGNILSELQEEPSSSTRQATDRRRPRSRSPHGRRTPVSHSGPEKPPSKMFFDPPDSQRVSFVVEIFVYGNLRGTLRREGDAGEA
In the case of B8, the binding result in experiment [3] was “binds”.

B9: GST-vIRF4 153-305 (other)
single chain: SDTREQSYEEAGAAAPAPPKAPSGLRGRPRKSNRYYNVGDITTEQKAACSVWIPVNEGASTSGMGSSGTRQVTQASSFTWRVPGDPPAPSTLTGPSDPHSSGAGLPGTAPPKPQHETRLAGTVSGVSGVAQTPGDTGQLAPPMRDGSRLPSTS
For the molecule B9, the binding result in experiment [1] is “binds”.

B10: vIRF4^153-216 (other)
chain: SDTREQSYEEAGAAAPAPPKAPSGLRGRPRKSNRYYNVGDITTEQKAACSVWIPVNEGASTSGM
In experiment [5], B10 displayed a Ka of 1.84e+06 M⁻¹, a Kd of 540 nM, a TΔS of -7.35 kcal/mol and a n of 0.82. In experiment [5], this molecule came in with a ΔG of -8.41 kcal/mol and a ΔH of -15.8 kcal/mol.
